Measurements as given in US20130078720, “METHOD FOR INDUCING PLURIPOTENCY IN HUMAN SOMATIC CELLS WITH PRDM14 OR NFRKB” (Agency for Science, Technology and Research, published 2013).

Target: T1, PRDM14 DNA binding domain (C-terminal 179 aa) (Homo sapiens, UniProt Q9GZV8 SEQ:393-571)
T1 sequence: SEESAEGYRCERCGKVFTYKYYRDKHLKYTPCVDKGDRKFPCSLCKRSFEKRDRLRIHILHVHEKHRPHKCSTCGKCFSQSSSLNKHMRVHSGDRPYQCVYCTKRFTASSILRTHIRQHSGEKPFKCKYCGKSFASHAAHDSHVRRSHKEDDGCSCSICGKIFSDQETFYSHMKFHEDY
Assay: EMSA; 100 ng protein, 1 ng probe, poly(dI-dC), 10 mM ZnCl2, 60 mM KCl, pH 7.9, room temperature
Details: tags: His tag, pET42b, E. coli BL21; label: 5' biotin on sense strand
Protocol: Recombinant PRDM14 DNA binding domain (His tagged) was used in the gel shift assays. Briefly, a cDNA encoding 179 amino acids of the C terminus of PRDM14 was cloned into the pET42b (Novagen) vector using cloning sites NdeI and XhoI. The fusion construct was transformed into BL21 competent cells (Strategene) according to the supplier's instructions. Purified proteins were dialyzed against a dialysis buffer (10 mM Tris-HCl, pH 7.4, 100 mM NaCl, 10 mM ZnCl₂ and 10% glycerol) at 4° C. for 6 hr. Oligonucleotides (Proligo) labeled with biotin at the 5′ end of the sense strands were annealed with the antisense strands in the annealing buffer (10 mM Tris-HCl, pH8.0, 50 mM NaCl, 1 mM EDTA) and purified with agarose gel DNA extraction kit (Qiagen). DNA concentrations were determined by the NanoDrop ND-1000 spectrophotometer. The gel shift assays were performed using a LightShift Chemiluminescent EMSA kit (Pierce Biotechnologies). 100 ng of protein was added to a 5 μl reaction mixture (final) containing 1 μg of poly(dI-dC) (Amersham), 1 ng of biotin-labeled oligonucleotide in the binding buffer (12 mM HEPES, pH7.9, 10% glycerol, 60 mM KCl, 0.25 mM EDTA, 1 mM DTT, 10 mM ZnCl₂). Binding reaction mixtures were incubated for 20 min at room temperature. […] Gels were transferred to Biodyne B nylon membranes (Pierce Biotechnologies) using western blot techniques and detected using chemiluminescence.

B1: CR2 probe (dsDNA)
DNA 1: CAGCTCTAACCCTAAACAAGTGCTCAACCCTTGAATGGGCCTGGATGGCT
DNA 2: AGCCATCCAGGCCCATTCAAGGGTTGAGCACTTGTTTAGGGTTAGAGCTG
Does B1 bind?
Result: binds
